Here are results for two molecules from patent publication US20190002549A1 (I MAB BIOPHARMA, published 2019).

The target of test [1] is T1, recombinant rhesus GM-CSF protein (rhesus, UniProt Q9GL44 18-144).
T1 construct: Bought recombinant protein (Genscript)
The test can be described thus: ELISA, rhesus GM-CSF coated at 1 µg/ml. How it is done: (§1) Recombinant human or rhesus GM-CSF protein (Genscript) was coated at 1 μg/ml in PBS onto microtiter plates for 2 h at room temperature (RT). After coating of antigen the wells were blocked with PBS/0.05% Tween (PBST) with 1% BSA for 1 h at RT. After washing of the wells with PBST, different concentrations of anti-GM-CSF antibodies were added to the well and incubated for 1 at RT. For detection of the binding antibodies, the HRP-conjugated secondary antibodies against mouse Fc (Jackson Immuno Research) were added, followed by the addition of fluorogenic substrates (Roche). Between all incubation steps, the wells of the plate were washed with PBST three times. Fluorescence was measured in a TECAN Spectrafluor plate reader.
On the technique in general: An ELISA detects its analyte on a solid surface through an enzyme-linked reagent.

Test [2] deals with T2, recombinant human GM-CSF protein (human, UniProt P04141 18-144). Description: cell-based or functional assay.
T2 sequence (P04141 18-144 limits assumed): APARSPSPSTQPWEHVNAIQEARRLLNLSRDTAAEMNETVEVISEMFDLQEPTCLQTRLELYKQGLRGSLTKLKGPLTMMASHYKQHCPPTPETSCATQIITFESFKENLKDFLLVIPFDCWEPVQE
Test [3] concerns the target T2, recombinant human GM-CSF protein. Description: SPR Biacore T200, antibody captured by anti-mouse Fc, GM-CSF as analyte, 25 C, 1:1 model. The method, then:
FIG. 4 plots the binding kinetics of 23F4 and 50C5 with recombinant human GM-CSF. […] The binding kinetics assay of antibody to antigen was performed using Biacore T200 system through a mouse antibody capture approach. The anti-mouse Fc IgG were immobilized on CMS sensor chip according to the manufacturer's instruction. The test antibody was injected and captured by the immobilized anti-mouse Fc IgG. And then serial concentrations of the antigen were individually injected, and the binding profile was recorded for each concentration of antigen analyte, respectively. The assay system was regenerated by injection of 10 mM Glycine-HCL pH 1.5 for 30 seconds. The running buffer was HBS-EP+ (10 mM HEPES, pH 7.4, 150 mM NaCl, 3 mM EDTA and 0.05% P20). The assay temperature was 25° C., and the association and dissociation time were 180 and 600 seconds, respectively.
Background: Surface plasmon resonance follows binding to a sensor surface in real time, without labels.

Test [4] shares this target. Description: ELISA, human GM-CSF coated at 1 µg/ml. The method, then:
as §1

For test [5] the target is unchanged. The test can be described thus: competition ELISA: antibody titrated with biotinylated human GM-CSF (0.05 ug/ml) on coated human GM-CSF receptor alpha (CD116); signal is GM-CSF bound to the receptor. The method, then:
After coating of antigen the wells were blocked with PBS/0.05% Tween (PBST) with 1% BSA for 1 h at RT. After washing of the wells with PBST, different concentrations of anti-GM-CSF antibodies were added to the well in the presence of biotinylated human GM-CSF protein (0.05 μg/ml) and incubated for 1 hr at RT.
For detection of the binding of biotinylated GM-CSF to the coated receptor, the HRP-conjugated Streptavidin was added, followed by the addition of fluorogenic substrates (Roche). Between all incubation steps, the wells of the plate were washed with PBST three times. Fluorescence was measured in a TECAN Spectrafluor plate reader.

T1 sequence (Q9GL44 entry or part of it limits assumed): as the sequence (P04141 18-144 limits assumed) above, with S9G, E38K, I43V, T53S, R67Q, E104Q counted along it

B1: 50C5 (antibody, V domains shown)
VH: QVQLQQSAAELVRPGASVKMSCKASGYIFTPYSIHWIKQRPGQGLEWIGYINPSTGYIEYNQHFKDRTTLTADKSSSTAYMQLRSLTSEDSAVYYCARGGDYEGYFDYWGQGTTLTVSS
VL: DIQMTQSPDSLSASVGETVTITCRLNENIYSFLAWYQQRQGKSPQLLVYNAETLAEDVPSRFSGSGSGTQFSLKISSLQTDDFGTYYCQQHYGTPYTFGGGTNLEIE
notes: Mouse monoclonal antibody from a hybridoma; also called 5005 (misprint of 50C5); murine antibody 50C5
Usually EC50 stands for the concentration giving half of the maximal effect. Usually Kd stands for the constant that tells how readily two partners part at equilibrium. A word on the koff: it is a measure of how fast the partners let go of each other. As usually defined, the kon is the second-order rate constant of association. For B1, the EC50 in test [1] came to 0.0217 µg/mL. In test [2], the “IC50 in the inhibition of TF-1 proliferation” value was approximately 0.0109 µg/mL. Also, in test [3], the Kd turned out to be 0.0443 nM, the off-rate constant (koff) came to 0.00012 s⁻¹ and the on-rate constant (kon) is 2.72e+06 M⁻¹ s⁻¹. Also, the concentration for a half-maximal effect (EC50) in test [4] was determined as 0.0146 µg/mL.

B2: 23F4 (antibody, V domains shown)
VH: QVQLQQSGPELVKPGTSMKISCKTSDYTLTSHYLHWVKQRPGQGLEWIGWIFPGDDKTKYNEKFKGKATLTSDKTSNTAYMQLSSLTSEESAVYFCARGTKYLNWNFDVWGTGTTVTVSS
VL: DIVLTQPQKFLSTSVGDRVSVTCKANQNVGTTLAWYQQKPGQSPKALIYSASYRYSGVPDRFTGSGSGTDFTLTISNVQSEDLAEYFCHQYTTYPLTFGGGTKLEIK
notes: Mouse monoclonal antibody from a hybridoma; also called 23F4 antibody; murine antibody 23F4
On to B2, for which, in test [1], the EC50 came to 0.0102 µg/mL. Besides, the “IC50 (read off the curve)” value in test [5] is approximately 1 µg/mL. For the same molecule, in test [2], the “IC50 in the inhibition of TF-1 proliferation” value was approximately 0.0109 µg/mL. In test [3], the Kd came to 0.0417 nM, the dissociation rate constant (koff) is 3.64e-05 s⁻¹ and the on-rate constant (kon) turned out to be 872000 M⁻¹ s⁻¹. For the same molecule, the EC50 in test [4] turned out to be 0.0118 µg/mL.
